# From article doi:10.1101/636563
# Key:
# KRas G12D (GDP-loaded) [1] = target: KRas G12D (GDP-loaded) (UniProt P01116); assay: ITC
# KRas G12D (GDP-loaded) [2] = target: KRas G12D (GDP-loaded) (UniProt P01116); assay: thermal shift assay
# KRas wild-type = KRas wild-type (UniProt P01116); assay: ITC
# [3] = target: KRas G12D, site-specifically mono-biotinylated by sortase-mediated ligation (GDP-loaded) (UniProt P01116); assay: SPR
substance,measurement,setting,value
KRpep-2d (peptide),Kd,KRas G12D (GDP-loaded) [1],0.021 µM
same,stoichiometry N,KRas G12D (GDP-loaded) [1],0.625
same,ΔTm,KRas G12D (GDP-loaded) [2],11.5 °C
Raf-RBD (from UniProt P04049 56-131) (domain or fragment),Kd,KRas wild-type,0.006 µM
same,stoichiometry N,KRas wild-type,0.554
SAH-SOS1A (from UniProt Q07889 929-944) (peptide),Kd,[3],> 1 µM
cyclorasin 9A5 (peptide),Kd,[3],> 1 µM
